B1: Forkhead box protein R1 (Homo sapiens), Q6PIV2 (parent)
chain: MGNELFLAFTTSHLPLAEQKLARYKLRIVKPPKLPLEKKPNPDKDGPDYEPNLWMWVNPNIVYPPGKLEVSGRRKREDLTSTLPSSQPPQKEEDASCSEAAGVESLSQSSSKRSPPRKRFAFSPSTWELTEEEEAEDQEDSSSMALPSPHKRAPLQSRRLRQASSQAGRLWSRPPLNYFHLIALALRNSSPCGLNVQQIYSFTRKHFPFFRTAPEGWKNTVRHNLCFRDSFEKVPVSMQGGASTRPRSCLWKLTEEGHRRFAEEARALASTRLESIQQCMSQPDVMPFLFDL
partner: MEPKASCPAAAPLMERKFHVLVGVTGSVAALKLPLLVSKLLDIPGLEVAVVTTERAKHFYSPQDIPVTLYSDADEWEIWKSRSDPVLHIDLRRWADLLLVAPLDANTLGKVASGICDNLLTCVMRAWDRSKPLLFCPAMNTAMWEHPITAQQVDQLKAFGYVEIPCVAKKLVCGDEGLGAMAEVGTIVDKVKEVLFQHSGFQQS
B2: Homeobox protein VENTX (Homo sapiens), O95231 (parent)
chain: MRLSSSPPRGPQQLSSFGSVDWLSQSSCSGPTHTPRPADFSLGSLPGPGQTSGAREPPQAVSIKEAAGSSNLPAPERTMAGLSKEPNTLRAPRVRTAFTMEQVRTLEGVFQHHQYLSPLERKRLAREMQLSEVQIKTWFQNRRMKHKRQMQDPQLHSPFSGSLHAPPAFYSTSSGLANGLQLLCPWAPLSGPQALMLPPGSFWGLCQVAQEALASAGASCCGQPLASHPPTPGRPSLGPALSTGPRGLCAMPQTGDAF
B3: Protein FAM9B (Homo sapiens), Q8IZU0 (parent)
chain: MAAWGKKHAGKDPVRDECEERNRFTETREEDVTDEHGEREPFAETDEHTGANTKKPEDTAEDLTAKRKRMKMDKTCSKTKNKSKHALRKKQLKRQKRDYIHSLKLLNVLEEYITDEQKEEEEEEGEEEELIRIFQEQQKKWQQYRSVRRERLKEMKLLRDQFVKALEDFEDLCDRVFSDEDSELDN
partner: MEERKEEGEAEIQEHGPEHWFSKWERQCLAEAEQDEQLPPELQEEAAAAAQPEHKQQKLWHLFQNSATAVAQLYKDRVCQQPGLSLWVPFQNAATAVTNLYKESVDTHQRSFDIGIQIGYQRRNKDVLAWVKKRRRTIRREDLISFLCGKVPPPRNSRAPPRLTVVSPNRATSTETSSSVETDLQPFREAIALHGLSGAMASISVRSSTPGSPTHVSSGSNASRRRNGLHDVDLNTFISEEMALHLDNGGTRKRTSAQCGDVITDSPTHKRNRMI
B4: Four and a half LIM domains protein 3 (Homo sapiens), Q13643 (parent)
chain: MSESFDCAKCNESLYGRKYIQTDSGPYCVPCYDNTFANTCAECQQLIGHDSRELFYEDRHFHEGCFRCCRCQRSLADEPFTCQDSELLCNDCYCSAFSSQCSACGETVMPGSRKLEYGGQTWHEHCFLCSGCEQPLGSRSFVPDKGAHYCVPCYENKFAPRCARCSKTLTQGGVTYRDQPWHRECLVCTGCQTPLAGQQFTSRDEDPYCVACFGELFAPKCSSCKRPIVGLGGGKYVSFEDRHWHHNCFSCARCSTSLVGQGFVPDGDQVLCQGCSQAGP
partner: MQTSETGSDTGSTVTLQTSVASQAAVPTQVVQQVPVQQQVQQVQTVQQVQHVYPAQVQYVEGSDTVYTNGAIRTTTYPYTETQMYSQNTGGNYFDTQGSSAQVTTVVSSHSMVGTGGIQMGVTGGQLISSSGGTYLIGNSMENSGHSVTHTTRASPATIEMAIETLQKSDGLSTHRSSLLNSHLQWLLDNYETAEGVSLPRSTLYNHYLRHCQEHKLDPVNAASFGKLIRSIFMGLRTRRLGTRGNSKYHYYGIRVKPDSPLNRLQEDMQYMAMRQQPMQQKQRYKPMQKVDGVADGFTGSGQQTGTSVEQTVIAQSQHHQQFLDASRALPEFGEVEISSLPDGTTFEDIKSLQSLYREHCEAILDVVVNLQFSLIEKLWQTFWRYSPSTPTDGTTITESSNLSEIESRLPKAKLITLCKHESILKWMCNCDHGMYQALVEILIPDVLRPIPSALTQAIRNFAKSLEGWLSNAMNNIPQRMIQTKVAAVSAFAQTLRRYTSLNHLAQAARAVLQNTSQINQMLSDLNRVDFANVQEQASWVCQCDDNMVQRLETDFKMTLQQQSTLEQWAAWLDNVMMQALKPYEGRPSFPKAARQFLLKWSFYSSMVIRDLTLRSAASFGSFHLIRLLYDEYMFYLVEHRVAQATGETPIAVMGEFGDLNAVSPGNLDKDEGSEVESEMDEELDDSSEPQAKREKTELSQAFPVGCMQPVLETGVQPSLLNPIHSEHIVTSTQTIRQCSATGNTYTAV
B5: DCC-interacting protein 13-alpha (Homo sapiens), Q9UKG1 (parent)
chain: MPGIDKLPIEETLEDSPQTRSLLGVFEEDATAISNYMNQLYQAMHRIYDAQNELSAATHLTSKLLKEYEKQRFPLGGDDEVMSSTLQQFSKVIDELSSCHAVLSTQLADAMMFPITQFKERDLKEILTLKEVFQIASNDHDAAINRYSRLSKKRENDKVKYEVTEDVYTSRKKQHQTMMHYFCALNTLQYKKKIALLEPLLGYMQAQISFFKMGSENLNEQLEEFLANIGTSVQNVRREMDSDIETMQQTIEDLEVASDPLYVPDPDPTKFPVNRNLTRKAGYLNARNKTGLVSSTWDRQFYFTQGGNLMSQARGDVAGGLAMDIDNCSVMAVDCEDRRYCFQITSFDGKKSSILQAESKKDHEEWICTINNISKQIYLSENPEETAARVNQSALEAVTPSPSFQQRHESLRPAAGQSRPPTARTSSSGSLGSESTNLAALSLDSLVAPDTPIQFDIISPVCEDQPGQAKAFGQGGRRTNPFGESGGSTKSETEDSILHQLFIVRFLGSMEVKSDDHPDVVYETMRQILAARAIHNIFRMTESHLLVTCDCLKLIDPQTQVTRLTFPLPCVVLYATHQENKRLFGFVLRTSSGRSESNLSSVCYIFESNNEGEKICDSVGLAKQIALHAELDRRASEKQKEIERVKEKQQKELNKQKQIEKDLEEQSRLIAASSRPNQASSEGQFVVLSSSQSEESDLGEGGKKRESEA
partner: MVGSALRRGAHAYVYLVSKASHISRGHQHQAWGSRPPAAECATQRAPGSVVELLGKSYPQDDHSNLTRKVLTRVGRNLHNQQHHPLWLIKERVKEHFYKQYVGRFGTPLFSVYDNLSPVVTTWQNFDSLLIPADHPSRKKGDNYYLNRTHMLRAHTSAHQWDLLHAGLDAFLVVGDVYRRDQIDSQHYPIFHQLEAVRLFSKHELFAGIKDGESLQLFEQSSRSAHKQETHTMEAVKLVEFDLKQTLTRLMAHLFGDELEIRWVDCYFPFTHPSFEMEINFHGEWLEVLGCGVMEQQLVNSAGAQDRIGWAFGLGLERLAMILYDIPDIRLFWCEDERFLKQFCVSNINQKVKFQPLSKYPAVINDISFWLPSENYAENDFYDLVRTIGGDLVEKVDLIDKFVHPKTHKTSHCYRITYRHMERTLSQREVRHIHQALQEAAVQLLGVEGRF
B6: Tripartite motif-containing protein 10 (Homo sapiens), Q9UDY6 (parent)
chain: MASAASVTSLADEVNCPICQGTLREPVTIDCGHNFCRACLTRYCEIPGPDLEESPTCPLCKEPFRPGSFRPNWQLANVVENIERLQLVSTLGLGEEDVCQEHGEKIYFFCEDDEMQLCVVCREAGEHATHTMRFLEDAAAPYREQIHKCLKCLRKEREEIQEIQSRENKRMQVLLTQVSTKRQQVISEFAHLRKFLEEQQSILLAQLESQDGDILRQRDEFDLLVAGEICRFSALIEELEEKNERPARELLTDIRSTLIRCETRKCRKPVAVSPELGQRIRDFPQQALPLQREMKMFLEKLCFELDYEPAHISLDPQTSHPKLLLSEDHQRAQFSYKWQNSPDNPQRFDRATCVLAHTGITGGRHTWVVSIDLAHGGSCTVGVVSEDVQRKGELRLRPEEGVWAVRLAWGFVSALGSFPTRLTLKEQPRQVRVSLDYEVGWVTFTNAVTREPIYTFTASFTRKVIPFFGLWGRGSSFSLSS
partner: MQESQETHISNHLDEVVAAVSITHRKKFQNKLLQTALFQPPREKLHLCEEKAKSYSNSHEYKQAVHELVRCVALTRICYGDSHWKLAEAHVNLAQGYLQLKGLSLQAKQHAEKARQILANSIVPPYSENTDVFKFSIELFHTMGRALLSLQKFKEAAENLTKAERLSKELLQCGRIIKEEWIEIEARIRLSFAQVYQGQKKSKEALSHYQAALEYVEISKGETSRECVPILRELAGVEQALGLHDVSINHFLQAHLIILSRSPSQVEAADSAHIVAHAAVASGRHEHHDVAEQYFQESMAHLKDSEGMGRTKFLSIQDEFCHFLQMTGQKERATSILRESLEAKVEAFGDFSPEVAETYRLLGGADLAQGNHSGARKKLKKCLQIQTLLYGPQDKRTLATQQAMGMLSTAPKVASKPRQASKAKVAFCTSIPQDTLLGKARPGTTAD

Variants of: B1
Conditions: with coac_human PPCDC

Variant	effect of a mutation on the interaction
W127C	with no effect
E18G	disrupting interaction strength

Variants of: B2
Conditions: with rbpms_human RBPMS

Variant	effect of a mutation on the interaction
M251V	with no effect
A226E	with no effect
L42P	with no effect

Variants of: B3
Conditions: with hapr1_human HAPSTR1, Q14CZ0

Variant	effect of a mutation on the interaction
R23H	with no effect

Variants of: B4
Conditions: with rfx3_human RFX3, P48380

Variant	effect of a mutation on the interaction
R226H	with no effect

Variants of: B5
Conditions: with syfm_human FARS2, O95363

Variant	effect of a mutation on the interaction
E67G	with no effect
E643Q	with no effect

Variants of: B6
Conditions: with ttc23_human TTC23, Q5W5X9

Variant	effect of a mutation on the interaction
R216K	with no effect
D30N	with no effect

— IntAct's records for PubMed 31515488
